# Measured values: publication PMC5394233, “Structural and functional analysis of the human POT1-TPP1 telomeric complex” (Nature Communications, 2017)
# T1: human POT1C (residues 330-634) Q623H (human, UniProt Q9NUX5 330-634, Q623H)
# T1 construct: POT1, human, C-terminal portion (OB-fold and HJR domain), residues 330-634, with the germline melanoma-associated mutation Q623H; PDB 5UN7 holds the wild-type parent with the same limits; The methods describe tag cleavage by TEV for the co-purified complex; For ITC the proteins were purified separately; also called POT1C Q623H; source: E. coli ScarabXpress T7 lac, purified (Ni-NTA, Poros HS/HQ, …)
# T1 sequence (looked up): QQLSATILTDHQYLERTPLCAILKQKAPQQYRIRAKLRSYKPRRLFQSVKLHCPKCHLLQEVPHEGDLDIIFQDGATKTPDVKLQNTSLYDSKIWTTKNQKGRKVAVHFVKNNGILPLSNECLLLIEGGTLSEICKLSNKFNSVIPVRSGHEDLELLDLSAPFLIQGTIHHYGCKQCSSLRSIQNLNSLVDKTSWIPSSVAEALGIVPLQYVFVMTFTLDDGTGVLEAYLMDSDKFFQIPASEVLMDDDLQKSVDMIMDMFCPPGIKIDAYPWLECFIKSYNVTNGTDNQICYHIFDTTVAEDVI
# What was measured:
# [1] = target: human POT1 C-terminus (POT1C), residues 330-634, wild type (human) (UniProt Q9NUX5); assay: ITC; MicroCal iTC200; 100 uM TPP1(PBD) injected into the cell with 10 uM POT1C; 25 C; 25 mM Hepes pH 7.5, 0.1 M KCl, 5% glycerol, 1 mM TCEP; 16 injections of 2.47 ul; proteins purified separately
# [2] = target: human POT1C (330-634) A532P (human) (UniProt Q9NUX5); assay: as above
# [3] = target: human POT1C (330-634) C591W (human) (UniProt Q9NUX5); assay: as above
# [4] = target: human POT1C (330-634) L343F (human) (UniProt Q9NUX5); assay: as above
# Sequence of human POT1C (330-634) L343F (human) (Q9NUX5 330-634 L343F): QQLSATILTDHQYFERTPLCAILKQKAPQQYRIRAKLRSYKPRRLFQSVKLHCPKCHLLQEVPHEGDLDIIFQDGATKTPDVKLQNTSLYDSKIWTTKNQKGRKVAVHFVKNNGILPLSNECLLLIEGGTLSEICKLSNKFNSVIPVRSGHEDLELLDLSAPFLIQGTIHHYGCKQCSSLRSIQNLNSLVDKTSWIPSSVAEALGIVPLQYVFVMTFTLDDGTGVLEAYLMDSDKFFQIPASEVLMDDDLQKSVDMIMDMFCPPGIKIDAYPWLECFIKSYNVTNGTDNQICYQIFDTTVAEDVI
# [5] = target: human POT1C (330-634) P446Q (human) (UniProt Q9NUX5); assay: as above
# [6] = target: human POT1C (330-634) P475L (human) (UniProt Q9NUX5); assay: as above
# [7] = target: human POT1C (330-634) Q623H (human) (UniProt Q9NUX5); assay: as above
# [8] = target: human POT1C (330-634) R477T (human) (UniProt Q9NUX5); assay: as above
# [9] = target: T1, human POT1C (residues 330-634) Q623H; assay: ITC; 100 uM TPP1(PBD) injected into the cell with 10 uM POT1C; 25 °C; 25 mM Hepes pH 7.5, 0.1 M KCl, 5% glycerol, 1 mM TCEP; 16 injections of 2.47 ul; three independent experiments; conditions: both partners purified
Kd [1] [nM],Kd [2] [nM],Kd [3] [nM],Kd [4] [nM],Kd [5] [nM],Kd [6] [nM],Kd [7] [nM],Kd [8] [nM],Kd [9] [nM],Molecule
120,117,870,114,289,164,471,123,,"human TPP1 POT1-binding domain, TPP1(PBD), residues 255-337 (from UniProt Q96AP0 255-337) (domain or fragment)"
,,,,,,,,472,"human TPP1(PBD), residues 255-337 (domain or fragment) SQLLDEMREDQEHQGALVCLAESCLTLEGPCTAPPVTHWAASRCKATGEAVYTVPSSMLCISENDQLILSSLGPCQRTQGPEL"
